Data published in US20070037736A1, “Therapeutic composition comprising the KAL protein and use of the KAL protein for the treatment of retinal, renal, neuronal and neural injury” (INSTITUT PASTEUR, priority 1997, published 2007).

Legend:
[1] = system: CHO-K1 cells; assay: Adhesion and inhibition assay, colorimetric; type: cell-based, Chinese Hamster
Procedure: (§1) Adhesion assays were performed as described in (à compléter) with some modifications. Coating with the various molecules, at the indicated concentrations in 0.5 ml PBS, was performed in plastic 24-well multidishes (Nunclon™) at 37° C. (1 h or overnight).The cells were then washed three times with PBS, coating blocked with 1% heat-inactivated BSA (à compléter) for at least 1 h at 37° C., followed by three PBS washes, before addition of the cells (10^6 cells per ml in serum-free medium containing 0.1% heat-inactivated BSA). In standard experiments, purified KAL was applied at 3 μg/ml. Other substrates were used as control, fibronectin (20% g/ml) and poly-L-lysine (100 μg/ml).
(§2) Cells were incubated for 30 min to 1 h on coated wells. Medium was then aspirated and unbound cells removed by one wash with PBS. The adherent cells were fixed with […] paraformaldehyde (PFA) in PBS and stained with 0.1% crystal violet. Quantification of the attached cells was performed using a colorimetric method (à compléter). Data are expressed as the percentage of adherent cells on each tested substrate with reference to poly-L-lysine. Assays in triplicate were repeated in three independent experiments.
Heparin, heparan sulfate or chondroitin sulfate (up to 1 mg/ml in PBS) was added in KAL-coated-BSA-saturated wells, and allowed to interact for 2 h at 37° C. […]

[2] = system: CHO-677 cells; assay: Adhesion assay with HS-deficient mutant cells; type: cell-based, Chinese Hamster
Text: The parental CHO cell line and the human KAL-transfected CHO clones (1-1 and 2-3) were cultivated in DMEM medium supplemented with 8% fetal calf serum (PAA, Jacques Boy, France). • Cells from the olfactory neuronal line 13.S.1.24 also named “line 24” (kindly provided by Dr. Astic, Lyon, France) were cultivated in DMEM supplemented with 10% calf serum. Porcine kidney epithelial cells (LLCPK) ATCC NO CRL1392 • Mouse GnRH neurons (GT1, subclone 1) • Wild-type CHO-K1, mutant CHO-K1-677 (Lidholt K. et al., 1992) and CHO-K1-606 (Bame et al., 1994) cell lines were provided to us by Dr. Esko, the mutant CHO-K1-745 (Esko et al., 1987) cell line was obtained from ATCC. The CHO-K1-677 cells display undetectable levels of heparan-sulfate (HS), but synthesize chondroitin sulfate (CS) at a level 3 times higher than wild-type CHO-K1 cells. The CHO-K1-606 cells express HS and CS at levels similar to those observed in wild-type, but HS is 2 to 3 times less sulfated than in wild-type cells. The CHO-K1-745 cells, deficient in xylosyltransferase, synthesize neither HS nor CS (Esko et al., 1987). Wild-type and mutant CHO-K1cells were maintained in Ham F12 medium supplemented with 10% fetal calf serum.
as §1, with “Other substrates were used as control, fibronectin (20% g/ml) and poly-L-lysine (100 μg/ml).” left out
(§3) Cells were incubated for 30 min to 1 h on coated wells. […] Quantification of the attached cells was performed using a colorimetric method (à compléter). Data are expressed as the percentage of adherent cells on each tested substrate with reference to poly-L-lysine. […]

[3] = system: olfactory neurons (line 24); assay: Spreading and neurite growth on coated substrates; type: cell-based, rat; details: for mean neurite length per olfactory neuron: mean ± SEM
Procedure: FIG. 28: Mean neurite length on the different substrates after one hour, two hours and eight hours in vitro. Mean value±SEM. More than 100 neurons were analyzed in each experimental condition.
Cells, in serum-free medium containing 0.1% heat inactivated BSA were seeded on KAL- or laminin-coated wells, and maintained for 20 min to 22 h at 37° C. Adherent cells were fixed, stained with toluidine blue, and photographied with an inverted microscope.

[4] = system: PC12 cells; assay: Adhesion and inhibition assay, colorimetric; type: cell-based, rat; details: HS or CS pretreatment of KAL-coated wells; data not shown
Procedure: as §1, §2
Cells were incubated for 5 min at room temperature in HBSS containing 5 mM EDTA, washed once with HBSS and preincubated for 1 h at 4° C. in HBSS containing 0.1% BSA in the absence or in the presence of Ca^++ and/or Mg^++ prior plating.
Heparin, heparan sulfate or chondroitin sulfate (up to 1 mg/ml in PBS) was added in KAL-coated-BSA-saturated wells, and allowed to interact for 2 h at 37° C. After three washings with PBS, CHO-K1or PC12 cells were plated, and incubated as usual.
A 32 aminoacid peptide (32R1-FIG. 24) was synthesized (Syntiem laboratory). Control peptides were C17 (NH2CSLVPTKKKRRKTTDGF-COON) (SEQ ID NO:7) derived from the second fibronectin type III repeat of human KAL and C 16V (NHzCGSYANNNRYGRDPPTSV-000H), (SEQ ID NO:8) derived from the EYA1 protein (a completer). The peptides, at various concentrations (10 to 30 μg/ml), were directly adsorbed on polystyrene microtiter wells (Immulon 4, Nunc). […]

[5] = system: PC12 cells; assay: Adhesion assay on coated wells, cell counter; includes antibody, heparin and R1-FNIII inhibition; type: cell-based, rat
Procedure: (§4) 24-well microtiter plates were coated at 37 °C overnight with 20 μg/ml of laminin, 5μg/ml of KAL in PBS, pH=7.4. The plates were washed twice with PBS and non specific sites were blocked by the addition of 1% BSA in PBS for 1 hour at 37° C. Wells were washed twice with PBS. Cerebellar neurons or PC12 cells were resuspended in DMEM to a final concentration of 10^6 cells/ml. 500 μl of this suspension was added to each coated well. Cells were also added to control wells that had been coated with BSA alone. Plates were incubated at 37° C. for 90 min in a 5% CO2 humidified atmosphere. The wells were washed gently twice with 0.5 ml PBS. To remove adherent cells from the wells, 0.5 ml of 0.05% trypsin-EDTA were added to each well. After 10 min at 37 °C, the 0.5 ml of trypsin-EDTA containing the detached cells were removed and the number of cells was determined by using a cell counter (Coutler, ZM equipped with a Coultronic 256 channelizer).
(§5) Each cell adhesion assay was carried out in triplicate. The ration of adherent cells with respect to the total number of cell ×100 was determined as the % of cell adhesion.
For inhibition of cell adhesion, 5 ×10^5 PC12 cells were deposited on areas previously coated with KAL and with antiserum directed against the human KAL protein at different concentrations and treated as described for adhesion assay. […]

[6] = system: P5 cerebellar granule cells; assay: Adhesion assay, colorimetric, relative to poly-L-lysine; type: cell-based, mouse; details: 1 hour
Procedure: as §1, §2

[7] = system: cerebellar granule neurons (aggregates); assay: Survival and neurite outgrowth of granule cell aggregates on coated substrates; type: cell-based, mouse; details: 48 hours culture
Procedure: Reaggregate cultures of cerebellar neurons from mice on postnatal day-5 were prepared according to Gao et al. (1995). After dissociation, cells were further purified by preplating on a poly-L-Lysine treated (25 μg/ml) substrate for 30 min and plated in uncoated 96-well dishes (5 10^5 cells/well) in BME plus 10% horse serum, 5% fetal calf serum, 9 mg/ml glucose, 0.3 mg/ml glutamine, 50 U/ml penicillin and 0.1 mg/ml streptomycin. Aggregates (100-200 cells) were harvested after 24 h to be used in coculture experiments.
prepared as described in the Materials and Methods section. Cerebellar granule neurons were seeded on surfaces that had been coated with KAL protein. Polylysine and bovine serum albumin (BSA) were used as positive and negative controls respectively.

[8] = system: cerebellar granule cells; assay: Adhesion assay on coated wells, adherent cells counted with a cell counter (% of total cells); type: cell-based, mouse; details: coated dishes, 90 minute incubation
Procedure: Cerebellar cell cultures. Dissociated cell cultures were obtained from Swiss mouse cerebella on postnatal day 5. At this age, granule cells account for up to 90% of the total cell population, glial cells included. Cells were dissociated by combined trituration and trypsinisation, and grown in chemically defined medium DMEM/Ham's F12 (3 vol/1 vol) containing 0.2 mM glutamine, 5 μg/ml insulin, 100 μg/ml tranferrin, 20 nM progesterone, […] purrescine, 30 nM selenium 100 U/ml penicillin and 0.1 mg/ml streptomycin.
as §4, with “Cells were also added to control wells that had been coated with BSA alone. Plates were incubated at 37° C. for 90 min in a 5% CO2 humidified atmosphere. The wells were washed gently twice with 0.5 ml PBS. To remove adherent cells from the wells, 0.5 ml of 0.05% trypsin-EDTA were added to each well.” left out
as §5

[9] = system: olfactory neurons (line 24); assay: Adhesion and peptide/serum inhibition assay, colorimetric; type: cell-based, rat; details: substrate coated to microtiter wells
Procedure: as §1, §2
A 32 aminoacid peptide (32R1-FIG. 24) was synthesized (Syntiem laboratory). Control peptides were C17 (NH2CSLVPTKKKRRKTTDGF-COON) (SEQ ID NO:7) derived from the second fibronectin type III repeat of human KAL and C 16V (NHzCGSYANNNRYGRDPPTSV-000H), (SEQ ID NO:8) derived from the EYA1 protein (a completer). The peptides, at various concentrations (10 to 30 μg/ml), were directly adsorbed on polystyrene microtiter wells (Immulon 4, Nunc). Adhesion assays were performed as described above.
In peptide inhibition assays, cells were preincubated with the peptides at different concentrations (10 to 100 μg/ml) for 1 h at 4° C., then plated to KAL-coated wells, and incubated for a further 30 min period of time.

[10] = system: CHO-745 cells; assay: Adhesion assay with HS- and CS-deficient mutant cells; type: cell-based, Chinese Hamster; details: KAL substrate
Text: (§6) The parental CHO cell line and the human KAL-transfected CHO clones (1-1 and 2-3) were cultivated in DMEM medium supplemented with 8% fetal calf serum (PAA, Jacques Boy, France). • Cells from the olfactory neuronal line 13.S.1.24 also named “line 24” (kindly provided by Dr. Astic, Lyon, France) were cultivated in DMEM supplemented with 10% calf serum. Porcine kidney epithelial cells (LLCPK) ATCC NO CRL1392 • Mouse GnRH neurons (GT1, subclone 1) • Wild-type CHO-K1, mutant CHO-K1-677 (Lidholt K. et al., 1992) and CHO-K1-606 (Bame et al., 1994) cell lines were provided to us by Dr. Esko, the mutant CHO-K1-745 (Esko et al., 1987) cell line was obtained from ATCC. The CHO-K1-677 cells display undetectable levels of heparan-sulfate (HS), but synthesize chondroitin sulfate (CS) at a level 3 times higher than wild-type CHO-K1 cells. The CHO-K1-606 cells express HS and CS at levels similar to those observed in wild-type, but HS is 2 to 3 times less sulfated than in wild-type cells. The CHO-K1-745 cells, deficient in xylosyltransferase, synthesize neither HS nor CS (Esko et al., 1987). […]
as §3

[11] = system: CHO-606 cells; assay: Adhesion assay with mutant cells expressing undersulfated HS; type: cell-based, Chinese Hamster; details: KAL substrate, versus wild-type CHO-K1
Text: as §6, §3

## chondroitinase ABC
[1]; cells treated prior plating
  decrease of adhesion of CHO-K1 cells on KAL after enzyme treatment: about 50%
[2]; data not shown
  effect of enzyme treatment of CHO-677 cells on adhesion on fibronectin substrate: did not affect adhesion
[2]; increasing concentrations, prior plating
  effect of enzyme treatment of CHO-677 cells on adhesion to KAL: virtually complete inhibition

## fibronectin [reference compound]
[3]; eight hours after plating
  mean neurite length per olfactory neuron: 63 (±2,5) μm
[3]; one hour on substrate
  mean neurite length per olfactory neuron: 46 (±4) μm

## heparin
[1]; KAL-coated wells preincubated with 100 μg/ml
  inhibition of CHO-K1 cell adhesion on KAL: approximately 50%
[4]
  inhibition of PC12 cell adhesion on KAL: 50%
[5]; heparin present in KAL-coated wells
  heparin concentration from which adhesion of PC12 cells to KAL protein was inhibited: ≥ 0.03 mg/mL

## laminin [reference compound]
[6]
  percentage of cell adhesion relative to PLL substrate (set as 100%): 50%

B1: KAL protein: recombinant human KAL gene product (680 aa, SwissProt P23352) purified from transfected CHO cells CHKAL2-3/d11 (protein)
chain: AGPGAAAARRLDESLSAGSVQRAPCASRCLSLQITRISAFFQHFQNNGSLVWCQNHKQCSKCLEPCKESGDLRKHQCQSFCEPLFPKKSYECLTSCEFLKYILLVKQGDCPAPEKASGFAAACVESCEVDNECSGVKKCCSNGCGHTCQVPKTLYKGVPLKPRKELRFTELQSGQLEVKWSSKFNISIEPVIYVVQRRWNYGIHPSEDDATHWQTVAQTTDERVQLTDIRPSRWYQFRVAAVNVHGTRGFTAPSKHFRSSKDPSAPPAPANLRLANSTVNSDGSVTVTIVWDLPEEPDIPVHHYKVFWSWMVSSKSLVPTKKKRRKTTDGFQNSVILEKLQPDCDYVVELQAITYWGQTRLKSAKVSLHFTSTHATNNKEQLVKTRKGGIQTQLPFQRRRPTRPLEVGAPFYQDGQLQVKVYWKKTEDPTVNRYHVRWFPEACAHNRTTGSEASSGMTHENYIILQDLSFSCKYKVTVQPIRPKSHSKAEAVFFTTPPCSALKGKSHKPIGCLGEAGHVLSKVLAKPENLSASFIVQDVNITGHFSWKMAKANLYQPMTGFQVTWAEVTTESRQNSLPNSIISQSQILPSDHYVLTVPNLRPSTLYRLEVQVLTPGGEGPATIKTFRTPELPPSSAHRHLKHRHPHHYKPSPERY
[7]
  survival and neurite outgrowth of granule cell aggregates on coated surface: large halo of neuritic processes
[8]
  percentage of adherent cells relative to the total number of cells deposited: 80%
[9]
  percentage of olfactory neurons (line 24) adherent on substrate: 70%
[6]
  percentage of cell adhesion relative to PLL substrate (set as 100%): 80%
[10]
  adhesion of CHO-745 cells on the substrate: No adhesion
[11]
  adhesion of CHO-606 cells to the substrate: comparable to that found in wild-type
[2]; KAL substrate
  decrease of adhesion of CHO-677 cells compared to wild-type CHO-K1 cells: about 70%
[3]; eight hours after plating
  stimulation of neurite elongation by comparison with fibronectin and peptide 32R1: 30%
  mean neurite length per olfactory neuron: 81 (±5) μm
[3]; one hour on substrate
  mean neurite length per olfactory neuron: 66 (±2,5) μm
[5]; coating concentration, results not shown, cell type not specified
  concentration of KAL protein giving maximum percentage of cell adhesion: 5 µg/mL
